From the supplement of paper PMC9876800

System: peptide library, one residue held at a place counted from the S/T acceptor
Assay: relative phosphorylation of the sub-library (ratio to the mean residue at this position); higher = residue favoured
Summary of the method: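 Human or orthologue kinase constructs, purified and recombinant, were incubated under kinase-specific conditions in 384-well plates with biotinylated degenerate peptide sub-libraries. Each sub-library fixed one residue at one position around a central Ser/Thr. Incubations lasted 90 min with peptides at 50 μM and 50 μM ATP spiked with γ-32P-ATP, after which spots on streptavidin membranes were phosphorimaged and quantified by densitometry. Relative sub-library phosphorylation is a ratio to the mean residue at that position.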

MARK2, construct: Full length, human, sequence (Q7KZI7 whole entry, looked up): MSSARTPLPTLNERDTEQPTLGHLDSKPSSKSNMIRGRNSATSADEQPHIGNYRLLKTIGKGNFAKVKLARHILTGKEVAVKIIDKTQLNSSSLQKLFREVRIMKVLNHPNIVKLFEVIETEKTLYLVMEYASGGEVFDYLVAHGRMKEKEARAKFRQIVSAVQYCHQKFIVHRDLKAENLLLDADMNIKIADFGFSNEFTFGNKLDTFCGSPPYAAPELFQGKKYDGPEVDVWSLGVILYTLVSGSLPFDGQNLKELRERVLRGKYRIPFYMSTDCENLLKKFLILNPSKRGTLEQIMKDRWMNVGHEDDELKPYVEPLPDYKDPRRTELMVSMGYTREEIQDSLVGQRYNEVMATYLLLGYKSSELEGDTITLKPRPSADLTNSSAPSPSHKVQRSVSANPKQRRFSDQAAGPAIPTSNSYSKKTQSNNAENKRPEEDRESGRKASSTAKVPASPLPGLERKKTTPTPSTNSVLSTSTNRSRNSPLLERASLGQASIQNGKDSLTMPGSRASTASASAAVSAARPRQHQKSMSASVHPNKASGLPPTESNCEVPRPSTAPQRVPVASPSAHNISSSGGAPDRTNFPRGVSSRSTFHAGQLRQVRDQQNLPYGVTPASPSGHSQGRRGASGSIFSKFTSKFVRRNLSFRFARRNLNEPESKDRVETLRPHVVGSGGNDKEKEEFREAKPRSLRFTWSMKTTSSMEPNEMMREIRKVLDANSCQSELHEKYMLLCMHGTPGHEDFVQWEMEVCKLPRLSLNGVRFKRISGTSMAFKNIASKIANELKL

MARK2, construct: Full length, human (from UniProt Q7KZI7)
relative phosphorylation
Settings	at +1	at +2	at +3	at +4	at -1	at -2	at -3	at -4	at -5
A fixed	0.661	0.734	0.723	0.42	1.08	2	0.814	1.24	1.05
D fixed	0.564	0.774	2.49	0.401	0.73	0.399	0.458	0.956	0.844
E fixed	0.799	1.09	0.957	0.353	0.654	0.338	0.52	0.924	0.899
F fixed	0.754	0.856	0.934	0.625	0.534	1.35	0.897	0.947	1.07
G fixed	0.6	0.488	0.517	0.388	2.43	1.32	0.775	1.16	0.977
H fixed	0.796	1.06	1.35	0.44	0.834	1.29	1.3	1.11	0.947
I fixed	1.16	0.984	0.682	3.42	0.568	0.511	0.548	0.635	0.932
K fixed	0.738	0.476	0.474	0.271	1.45	0.982	1.86	1.3	1.16
L fixed	1.22	1.16	0.965	5.46	0.755	0.456	0.56	0.727	1.51
M fixed	2.28	1.12	0.896	1.64	0.936	0.711	0.911	0.911	1.11
N fixed	1.12	1.15	2.48	0.37	1.05	0.698	0.734	1.01	0.846
P fixed	0.387	0.616	0.222	0.3	1.24	0.475	0.839	0.884	0.759
Q fixed	1.81	1.2	0.956	0.263	1.26	0.619	0.785	0.933	0.8
R fixed	0.846	0.624	0.454	0.192	1.21	0.926	3.26	1.35	1.3
V fixed	1.52	1.02	0.675	1.55	0.831	0.677	0.544	0.687	0.754
W fixed	0.852	2.63	1.14	0.444	0.674	2.61	1.36	1.28	1.14
Y fixed	0.898	1.02	1.08	0.464	0.77	1.64	0.842	0.947	0.909
pThr fixed	1.29	0.81	0.381	0.287	0.37	0.438	0.518	0.756	0.656
pTyr fixed	0.584	0.583	0.681	0.283	0.688	0.498	0.656	0.746	0.791
